Here are results for 1 molecule from publication doi:10.1101/2020.01.12.903617, “The peptide sensor motif stabilizes the outward-facing conformation of TmrAB” (bioRxiv, 2020).

Numbering of substitutions follows the chain as printed. No end group written: not given here. fluorescein = fluorescein label attached to the Cys side chain

In test [1] the target is T1, WT TmrAB, heterodimeric peptide exporter from Thermus thermophilus (Thermus thermophilus, UniProt Q72J05 1-600; Q72J04 1-578).
T1 construct: TmrA, Thermus thermophilus, the chain of TmrAB with the canonical Walker B motif; TmrB, Thermus thermophilus, the chain of TmrAB with the non-canonical Walker B motif; TmrAB template in pet22b; also called wild-type TmrAB
T1 sequence 1: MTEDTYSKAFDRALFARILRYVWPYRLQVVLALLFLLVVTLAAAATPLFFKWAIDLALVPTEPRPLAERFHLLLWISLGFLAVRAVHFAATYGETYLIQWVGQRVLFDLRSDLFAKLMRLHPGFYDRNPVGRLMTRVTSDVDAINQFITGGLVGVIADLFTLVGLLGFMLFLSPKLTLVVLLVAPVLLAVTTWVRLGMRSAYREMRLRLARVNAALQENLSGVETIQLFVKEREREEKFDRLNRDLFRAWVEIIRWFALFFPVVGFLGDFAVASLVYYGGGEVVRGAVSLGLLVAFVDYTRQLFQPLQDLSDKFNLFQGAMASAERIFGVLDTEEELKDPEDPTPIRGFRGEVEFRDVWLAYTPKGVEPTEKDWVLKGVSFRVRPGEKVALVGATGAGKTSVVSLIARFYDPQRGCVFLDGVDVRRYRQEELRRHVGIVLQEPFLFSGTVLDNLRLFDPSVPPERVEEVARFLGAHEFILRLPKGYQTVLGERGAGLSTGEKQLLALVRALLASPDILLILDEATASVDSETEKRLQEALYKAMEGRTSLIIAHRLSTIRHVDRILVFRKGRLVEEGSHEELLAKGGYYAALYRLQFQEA
T1 sequence 2: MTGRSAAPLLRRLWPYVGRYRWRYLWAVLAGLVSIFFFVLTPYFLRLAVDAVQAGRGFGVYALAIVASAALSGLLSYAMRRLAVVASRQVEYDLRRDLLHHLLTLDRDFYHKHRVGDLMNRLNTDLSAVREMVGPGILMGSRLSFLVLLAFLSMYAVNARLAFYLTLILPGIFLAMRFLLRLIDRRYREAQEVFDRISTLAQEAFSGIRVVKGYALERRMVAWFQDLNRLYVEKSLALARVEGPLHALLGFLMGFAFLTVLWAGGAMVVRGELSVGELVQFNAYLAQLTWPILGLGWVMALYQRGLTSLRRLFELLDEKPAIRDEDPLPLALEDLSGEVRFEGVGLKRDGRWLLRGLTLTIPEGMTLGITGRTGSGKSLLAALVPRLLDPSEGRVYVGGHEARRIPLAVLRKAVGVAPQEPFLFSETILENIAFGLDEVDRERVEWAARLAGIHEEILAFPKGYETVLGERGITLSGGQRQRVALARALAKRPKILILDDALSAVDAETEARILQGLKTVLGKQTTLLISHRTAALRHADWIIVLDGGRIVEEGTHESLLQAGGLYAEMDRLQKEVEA
Nature of the test: fluorescence polarisation; 1.7 uM TmrAB with 50 nM RRY(C^Fluorescein)KSTEL in SEC buffer (20 mM HEPES, 150 mM NaCl, pH 7, 0.05% ß-DDM), 15 minutes on ice, in the absence or presence of 5 mM ATP and 10 mM MgCl2; read at 25°C (the results say 4°C); signal normalized to WT without ATP. Conditions: both partners purified.

The next test deals with T2, TmrAB R136A^TmrA (Thermus thermophilus, UniProt Q72J05 1-600; Q72J04 1-578, R136A).
T2 construct: TmrA, Thermus thermophilus, the chain of TmrAB with the canonical Walker B motif; TmrB, Thermus thermophilus, the chain of TmrAB with the non-canonical Walker B motif
T2 sequence 1: T1 sequence 1 with R136A
T2 sequence 2: T1 sequence 2
The test is described as above. Conditions: both partners purified.

B1: fluorescent transport substrate peptide RRY(C^Fluorescein)KSTEL (peptide)
peptide: RRYC(fluorescein)KSTEL
notes: fluorescein-labelled transport substrate peptide of TmrAB; also called fluorescently-labeled peptide substrate; peptide substrate; source: bought: Genscript
Turning to B1, the binding result (in test [1]; with TmrAB R136A^TmrA) was “binds” in each case.
